Source: patent US9393271B2, “GHRH agonists for islet cell transplantation and function and the treatment of diabetes” (UNIVERSITY OF MIAMI, priority 2012, dated 2016)
Non-standard residues stand in square brackets, D forms with d. No end group written: not given here. *: point of attachment. Phe(F5) = N[C@@H](Cc1c(F)c(F)c(F)c(F)c1F)C(=O)O; Desaminotyrosyl = O=C(CCc1ccc(O)cc1)*; NMeY = CN[C@@H](Cc1ccc(O)cc1)C(=O)O; Agmatine = N=C(N)NCCCCN*; NMeA = CN[C@@H](C)C(=O)O; Nle = CCCC[C@H](N)C(=O)O; Orn = NCCC[C@H](N)C(=O)O; Abu = CC[C@H](N)C(=O)O; Aoc = NCCCCCCCC(=O)O; Ava = NCCCCC(=O)O; GABA = NCCCC(=O)O

T1: GHRH receptor in human pituitary membrane homogenates (human, UniProt Q02643)
T1 sequence: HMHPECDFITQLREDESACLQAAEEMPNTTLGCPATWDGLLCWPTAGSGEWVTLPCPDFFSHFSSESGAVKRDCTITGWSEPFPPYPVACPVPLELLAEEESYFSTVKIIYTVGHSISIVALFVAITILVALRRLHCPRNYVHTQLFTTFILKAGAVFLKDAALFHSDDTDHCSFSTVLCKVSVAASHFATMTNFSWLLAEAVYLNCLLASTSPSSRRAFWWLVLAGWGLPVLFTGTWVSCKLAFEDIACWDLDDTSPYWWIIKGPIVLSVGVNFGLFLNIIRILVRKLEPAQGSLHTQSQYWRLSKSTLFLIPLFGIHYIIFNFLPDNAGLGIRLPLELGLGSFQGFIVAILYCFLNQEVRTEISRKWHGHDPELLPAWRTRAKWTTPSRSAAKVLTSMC

B1: [Dat1, Gln8, Orn12, Abu15, Orn21, Nle27, Asp28, Apa30]hGHRH(1-30)NH2 (peptide)
peptide: [Desaminotyrosyl]ADAIFTQSYR[Orn]VL[Abu]QLSAR[Orn]LLQDI[Nle]DR[Ava]-NH2
SMILES: CCCC[C@H](NC(=O)[C@@H](NC(=O)[C@H](CC(=O)O)NC(=O)[C@H](CCC(N)=O)NC(=O)[C@H](CC(C)C)NC(=O)[C@H](CC(C)C)NC(=O)[C@H](CCCN)NC(=O)[C@H](CCCNC(=N)N)NC(=O)[C@H](C)NC(=O)[C@H](CO)NC(=O)[C@H](CC(C)C)NC(=O)[C@H](CCC(N)=O)NC(=O)[C@H](CC)NC(=O)[C@H](CC(C)C)NC(=O)[C@@H](NC(=O)[C@H](CCCN)NC(=O)[C@H](CCCNC(=N)N)NC(=O)[C@H](Cc1ccc(O)cc1)NC(=O)[C@H](CO)NC(=O)[C@H](CCC(N)=O)NC(=O)[C@@H](NC(=O)[C@H](Cc1ccccc1)NC(=O)[C@@H](NC(=O)[C@H](C)NC(=O)[C@H](CC(=O)O)NC(=O)[C@H](C)NC(=O)CCc1ccc(O)cc1)[C@@H](C)CC)[C@@H](C)O)C(C)C)[C@@H](C)CC)C(=O)N[C@@H](CC(=O)O)C(=O)N[C@@H](CCCNC(=N)N)C(=O)NCCCCC(N)=O
B2: [Ac-N-Me-Tyr1, D-Ala2, Gln8, Orn12, Abu15, Orn21, Nle27, Asp28, Agm29]hGHRH(1-29) (peptide)
peptide: Ac-[NMeY][dA]DAIFTQSYR[Orn]VL[Abu]QLSAR[Orn]LLQDI[Nle]D[Agmatine]
SMILES: CCCC[C@H](NC(=O)[C@@H](NC(=O)[C@H](CC(=O)O)NC(=O)[C@H](CCC(N)=O)NC(=O)[C@H](CC(C)C)NC(=O)[C@H](CC(C)C)NC(=O)[C@H](CCCN)NC(=O)[C@H](CCCNC(=N)N)NC(=O)[C@H](C)NC(=O)[C@H](CO)NC(=O)[C@H](CC(C)C)NC(=O)[C@H](CCC(N)=O)NC(=O)[C@H](CC)NC(=O)[C@H](CC(C)C)NC(=O)[C@@H](NC(=O)[C@H](CCCN)NC(=O)[C@H](CCCNC(=N)N)NC(=O)[C@H](Cc1ccc(O)cc1)NC(=O)[C@H](CO)NC(=O)[C@H](CCC(N)=O)NC(=O)[C@@H](NC(=O)[C@H](Cc1ccccc1)NC(=O)[C@@H](NC(=O)[C@H](C)NC(=O)[C@H](CC(=O)O)NC(=O)[C@@H](C)NC(=O)[C@H](Cc1ccc(O)cc1)N(C)C(C)=O)[C@@H](C)CC)[C@@H](C)O)C(C)C)[C@@H](C)CC)C(=O)N[C@@H](CC(=O)O)C(=O)NCCCCNC(=N)N
B3: [Dat1, D-Ala2, N-Me-Ala8, Orn12, Abu15, Orn21, Nle27, Asp28, Agm29]hGHRH(1-29) (peptide)
peptide: [Desaminotyrosyl][dA]DAIFT[NMeA]SYR[Orn]VL[Abu]QLSAR[Orn]LLQDI[Nle]D[Agmatine]
SMILES: CCCC[C@H](NC(=O)[C@@H](NC(=O)[C@H](CC(=O)O)NC(=O)[C@H](CCC(N)=O)NC(=O)[C@H](CC(C)C)NC(=O)[C@H](CC(C)C)NC(=O)[C@H](CCCN)NC(=O)[C@H](CCCNC(=N)N)NC(=O)[C@H](C)NC(=O)[C@H](CO)NC(=O)[C@H](CC(C)C)NC(=O)[C@H](CCC(N)=O)NC(=O)[C@H](CC)NC(=O)[C@H](CC(C)C)NC(=O)[C@@H](NC(=O)[C@H](CCCN)NC(=O)[C@H](CCCNC(=N)N)NC(=O)[C@H](Cc1ccc(O)cc1)NC(=O)[C@H](CO)NC(=O)[C@H](C)N(C)C(=O)[C@@H](NC(=O)[C@H](Cc1ccccc1)NC(=O)[C@@H](NC(=O)[C@H](C)NC(=O)[C@H](CC(=O)O)NC(=O)[C@@H](C)NC(=O)CCc1ccc(O)cc1)[C@@H](C)CC)[C@@H](C)O)C(C)C)[C@@H](C)CC)C(=O)N[C@@H](CC(=O)O)C(=O)NCCCCNC(=N)N
B4: [N-Me-Tyr1, Orn12, Abu15, Orn21, Nle27, Asp28, Amc30]hGHRH(1-30)NH2 (peptide)
peptide: [NMeY]ADAIFTNSYR[Orn]VL[Abu]QLSAR[Orn]LLQDI[Nle]DR[Aoc]-NH2
modifications: N-terminus assumed
SMILES: CCCC[C@H](NC(=O)[C@@H](NC(=O)[C@H](CC(=O)O)NC(=O)[C@H](CCC(N)=O)NC(=O)[C@H](CC(C)C)NC(=O)[C@H](CC(C)C)NC(=O)[C@H](CCCN)NC(=O)[C@H](CCCNC(=N)N)NC(=O)[C@H](C)NC(=O)[C@H](CO)NC(=O)[C@H](CC(C)C)NC(=O)[C@H](CCC(N)=O)NC(=O)[C@H](CC)NC(=O)[C@H](CC(C)C)NC(=O)[C@@H](NC(=O)[C@H](CCCN)NC(=O)[C@H](CCCNC(=N)N)NC(=O)[C@H](Cc1ccc(O)cc1)NC(=O)[C@H](CO)NC(=O)[C@H](CC(N)=O)NC(=O)[C@@H](NC(=O)[C@H](Cc1ccccc1)NC(=O)[C@@H](NC(=O)[C@H](C)NC(=O)[C@H](CC(=O)O)NC(=O)[C@H](C)NC(=O)[C@H](Cc1ccc(O)cc1)NC)[C@@H](C)CC)[C@@H](C)O)C(C)C)[C@@H](C)CC)C(=O)N[C@@H](CC(=O)O)C(=O)N[C@@H](CCCNC(=N)N)C(=O)NCCCCCCCC(N)=O
B5: [N-Me-Tyr1, Abu2, Orn12, Abu15, Orn21, Nle27, Gab30]hGHRH(1-30)NH2 (peptide)
peptide: [NMeY][Abu]DAIFTNSYR[Orn]VL[Abu]QLSAR[Orn]LLQDI[Nle]SR[GABA]-NH2
modifications: N-terminus assumed
SMILES: CCCC[C@H](NC(=O)[C@@H](NC(=O)[C@H](CC(=O)O)NC(=O)[C@H](CCC(N)=O)NC(=O)[C@H](CC(C)C)NC(=O)[C@H](CC(C)C)NC(=O)[C@H](CCCN)NC(=O)[C@H](CCCNC(=N)N)NC(=O)[C@H](C)NC(=O)[C@H](CO)NC(=O)[C@H](CC(C)C)NC(=O)[C@H](CCC(N)=O)NC(=O)[C@H](CC)NC(=O)[C@H](CC(C)C)NC(=O)[C@@H](NC(=O)[C@H](CCCN)NC(=O)[C@H](CCCNC(=N)N)NC(=O)[C@H](Cc1ccc(O)cc1)NC(=O)[C@H](CO)NC(=O)[C@H](CC(N)=O)NC(=O)[C@@H](NC(=O)[C@H](Cc1ccccc1)NC(=O)[C@@H](NC(=O)[C@H](C)NC(=O)[C@H](CC(=O)O)NC(=O)[C@H](CC)NC(=O)[C@H](Cc1ccc(O)cc1)NC)[C@@H](C)CC)[C@@H](C)O)C(C)C)[C@@H](C)CC)C(=O)N[C@@H](CO)C(=O)N[C@@H](CCCNC(=N)N)C(=O)NCCCC(N)=O

Molecular target: T1, GHRH receptor in human pituitary …
Assay: ligand competition, 125I-JV-1-42 displaced, human pituitary membranes

IC50 [nM] | relative affinity (binding potency) vs JI-38 [JI-38 = 1] | Binder
0.82 | 5.3 | [NMeY][dA]DAIFTQSYR[Orn]VL[Abu]QLSAR[Orn]LLQDI[Nle]D[Agmatine] [[N-Me-Tyr1, D-Ala2, Gln8, Orn12, Abu15, Orn21, Nle27, Asp28, Agm29]hGHRH(1-29)]
1.7 | 2.56 | [NMeY][dA]DAIFTNSYR[Orn]VL[Abu]QLSAR[Orn]LLQDI[Nle]D[Agmatine] [[N-Me-Tyr1, D-Ala2, Orn12, Abu15, Orn21, Nle27, Asp28, Agm29]hGHRH(1-29)]
2.45 | 1.78 | [Desaminotyrosyl]ADAIFTQSYH[Orn]VL[Abu]QLSAH[Orn]LLQDI[Nle]DR-NHMe (not fully specified) [[Dat1, Gln8, His11, Orn12, Abu15, His20, Orn21, Nle27, Asp28]hGHRH(1-29)NH-CH3]
1.99 | 2.18 | B1
3.44 | 1.26 | B2
0.86 | 5.06 | B3
0.3 | 14.5 | [NMeY]ADAIFTQSYR[Orn]VL[Abu]QLSAR[Orn]LLQDI[Nle]DR-NHMe (not fully specified) [[N-Me-Tyr1, Gln8, Orn12, Abu15, Orn21, Nle27, Asp28]hGHRH(1-29)NH-CH3]
3 | 1.45 | [Desaminotyrosyl]ADAIFTQSYR[Orn]VL[Abu]QLSAR[Orn]LLQDI[Nle]DR-NHMe (not fully specified) [[Dat1, Gln8, Orn12, Abu15, Orn21, Nle27, Asp28]hGHRH(1-29)NH-CH3]
3.05 | 1.43 | [NMeY][dA]DAI[Phe(F5)]TNSYR[Orn]VL[Abu]QLSAR[Orn]LLQDI[Nle]D[Agmatine] [[N-Me-Tyr1, D-Ala2, Fpa5-6, Orn12, Abu15, Orn21, Nle27, Asp28, Agm29]hGHRH(1-29)]
1.22 | 3.57 | [NMeY]ADAIFTQSYR[Orn]VL[Abu]QLSAR[Orn]LLQDI[Nle]SRQ-{GABA-NH2} [[N-Me-Tyr1, Gln8, Orn12, Abu15, Orn21, Nle27, Gln-Gab30]hGHRH(1-30)NH2]
2.99 | 1.45 | B4
1.18 | 3.67 | B5
0.87 | 5 | [NMeY][dA]DAI[Phe(F5)]TNSYR[Orn]VL[Abu]QLSAR[Orn]LLQDI[Nle]DR-NHMe [[N-Me-Tyr1, D-Ala2, Fpa5-6, Orn12, Abu15, Orn21, Nle27, Asp28]hGHRH(1-29)NH-CH3]
3.02 | 1.44 | [NMeY]ADAIFTNSYR[Orn]VL[Abu]QLSAR[Orn]LLQDI[Nle]SR[GABA]-NHMe [[N-Me-Tyr1, Orn12, Abu15, Orn21, Nle27, Gab30]hGHRH(1-30)NH-CH3]
3.8 | 1.14 | [NMeY]ADAIFTQSYR[Orn]VL[Abu]QLSAR[Orn]LLQDI[Nle]DR[Ava]-NH2 [[N-Me-Tyr1, Gln8, Orn12, Abu15, Orn21, Nle27, Asp28, Apa30]hGHRH(1-30)NH2]
1.08 | 4.03 | [NMeY]ADAIFTQSYR[Orn]VL[Abu]QLSAR[Orn]LLQDI[Nle]SR-NHMe (not fully specified) [[N-Me-Tyr1, Gln8, Orn12, Abu15, Orn21, Nle27]hGHRH(1-29)NH-CH3]
